Reference: patent US20250263502A1
Where a chain is given by its changes, count along the chain named. Names may count otherwise.

B1: VNAR clone D1 fused N-terminally to human IgG1 Fc (VNAR-hFc) (Fc fusion, not shown: a dimerising Fc or GST)
chain: ARVDQTPQTITKEEGESLTINCVLRHNYSALASTSWYRKKSGSTREETISKGGRYVETVNSGSKSFSLRINDLTVEDSGTYRCNVYGISFIEEKIRYDFDVYGDGTAVTVNA
B2: VNAR clone F1 fused N-terminally to human IgG1 Fc (VNAR-hFc) (Fc fusion, not shown: a dimerising Fc or GST)
chain: ARVDQTPQTITKEEGESLTINCVLRVHGRALASTSWYRKKSGSTREETISKGGRYVETVNSGSKSFSLRINDLTVEDSGTYRCNVYGLSSGDIEGVKKIDVYGDGTAVTVNA
B3: VNAR clone F12 fused N-terminally to human IgG1 Fc (VNAR-hFc) (Fc fusion, not shown: a dimerising Fc or GST)
chain: B2 chain with S90F
B4: VNAR clone H7 fused N-terminally to human IgG1 Fc (VNAR-hFc) (Fc fusion, not shown: a dimerising Fc or GST)
chain: ARVDQTPQTITKEEGESLTINCVLRYNNPALASTSWYRKKSGSTREETISKGGRYVETVNSGSKSFSLRINDLTVEDSGTYRCNVYFFPSFLVDKLQSHDVYGDGTAVTVNA
B5: VNAR clone H6 fused N-terminally to human IgG1 Fc (VNAR-hFc) (Fc fusion, not shown: a dimerising Fc or GST)
chain: ARVDQTPQTITKEEGESLTINCVLRTHSNALASTSWYRKKSGSTREETISKGGRYVETVNSGSKSFSLRINDLTVEDSGTYRCNVYAFLEIQPNIYHEFDVYGDGTAVTVNA
B6: VNAR clone E12 fused N-terminally to human IgG1 Fc (VNAR-hFc) (Fc fusion, not shown: a dimerising Fc or GST)
chain: ARVDQTPQTITKEEGESLTINCVLRTQDPALASTSWYRKKSGSTREETISKGGRYVETVNSGSKSFSLRINDLTVEDSGTYRCNVYFLLAPTKTKLQGIDVYGDGTAVTVNA
B7: VNAR clone H8 fused N-terminally to human IgG1 Fc (VNAR-hFc) (Fc fusion, not shown: a dimerising Fc or GST)
chain: ARVDQTPQTITKETGESLTINCVLRDSNCALPSTYWYRKKSGSTNEESISKGGRYVETVNSGSKSFSLRINDLVVEDSGTYRCKVGNYCIRLCYDMKFAVDVYGGGTAVTVNA
B8: VNAR clone G12 fused N-terminally to human IgG1 Fc (VNAR-hFc) (Fc fusion, not shown: a dimerising Fc or GST)
chain: ARVDQTPQTITKETGESLTINCVLRDSNCALSSTYWYRKKSGSTNEALISKGGRYVETVNSGSKSFSLRINDLTVEDSGTYRCNVVQDLRDDCFFRDVYGGGTAVTVNA
B9: VNAR clone C6 fused N-terminally to human IgG1 Fc (VNAR-hFc) (Fc fusion, not shown: a dimerising Fc or GST)
chain: B8 chain with Q87Y
B10: VNAR clone G10 fused N-terminally to human IgG1 Fc (VNAR-hFc) (Fc fusion, not shown: a dimerising Fc or GST)
chain: ARVDQTPQTITKETGESLTINCVLRDSNCALSSTYWYRKKSGSTNEENISKGGRYVETVNSGSKSFSLKINDLTVEDSGTYRCKVVFKLFSGRACAGEKDVYGGGTVVTVNA
B11: VNAR clone B12 fused N-terminally to human IgG1 Fc (VNAR-hFc) (Fc fusion, not shown: a dimerising Fc or GST)
chain: ARVDQTPRSVTKETGESLTINCVLRDASYALGSTCWYRKKSGSTNEESISKGGRYVETVNSGSKSFSLRINDLTVEDGGTYRCGVARGWRTLNYLCDVRTGEWSCVWRAAACGDGTAVTVNA
B12: VNAR clone F11 fused N-terminally to human IgG1 Fc (VNAR-hFc) (Fc fusion, not shown: a dimerising Fc or GST)
chain: ARVDQTPQTITKEEGESLTINCVLRGEFYALASTSWYRKKSGSTREETISKGGRYVETVNSGSKSFSLRINDLTVEDSGTYRCNVYGYRIFSPEVKGPNDVYGDGTAVTVNA
B13: VNAR clone H7A fused N-terminally to human IgG1 Fc (VNAR-hFc) (Fc fusion, not shown: a dimerising Fc or GST)
chain: PGVDQTEQTIKKEEGESVTIKCVMRVKYPALASTSRYRKKSGSREETISKGGRYVETVNYSSKSISVRINDMTVEDSGRYRCNVYEEYAVDCDALVYQDVYGDGTAVTVNA
B14: VNAR clone H12 fused N-terminally to human IgG1 Fc (VNAR-hFc) (Fc fusion, not shown: a dimerising Fc or GST)
chain: B2 chain with R29C, S90F, G91V
B15: VNAR clone A8 fused N-terminally to human IgG1 Fc (VNAR-hFc) (Fc fusion, not shown: a dimerising Fc or GST)
chain: ARVDQTPQTITKEEGESLTINCVLRRNFQLASTSWYRKKSGSTREETISKGGRYVETVNSGSKSFSLRINDLTVEDSGTYRCNVYGFVEFAKNIVEFIDVYGDGTAVTVNA
B16: VNAR clone G6 fused N-terminally to human IgG1 Fc (VNAR-hFc) (Fc fusion, not shown: a dimerising Fc or GST)
chain: ARVDQTPQTITKEEGESLTINCVLRVETRALASTSWYRKKSGSTREETISKGGRYVETVNSGSKSFSLRINDLTVEDSGTYRCNVYIRHYSEFTQAPFRDVYGDGTAVTVNA
B17: VNAR clone G3 fused N-terminally to human IgG1 Fc (VNAR-hFc) (Fc fusion, not shown: a dimerising Fc or GST)
chain: ARVDQTPQTITKETGESLTINCVLRDNNCALSTTYWYRKKSGSTNEENISKGGRYVETVNSGSKSFSLRINDLTVEDSGTYRCKVHFFPSFCNSTSIRSVDVYGGGTVVTVNA

Biological target: ectodomain of murine CD98hc (mouse) (UniProt P10852)
Sequence (P10852 100-526): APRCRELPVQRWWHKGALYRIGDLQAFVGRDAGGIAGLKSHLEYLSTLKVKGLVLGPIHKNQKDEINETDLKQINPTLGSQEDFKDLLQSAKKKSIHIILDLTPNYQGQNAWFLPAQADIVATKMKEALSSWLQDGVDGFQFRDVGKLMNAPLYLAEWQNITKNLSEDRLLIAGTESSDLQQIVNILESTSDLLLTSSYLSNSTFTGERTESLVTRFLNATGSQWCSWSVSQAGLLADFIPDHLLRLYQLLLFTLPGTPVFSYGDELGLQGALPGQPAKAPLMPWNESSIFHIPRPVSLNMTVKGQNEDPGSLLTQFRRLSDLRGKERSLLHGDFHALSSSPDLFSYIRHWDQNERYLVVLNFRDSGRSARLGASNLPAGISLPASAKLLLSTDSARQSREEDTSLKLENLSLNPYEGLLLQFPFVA
Test: ELISA, purified VNAR-Fc titrated on coated CD98hc

EC50 [nM]	Binder
190	B1
3860	B2
72	B3
504	B4
86	B5
819	B6

Biological target: ectodomain of human CD98hc (human) (UniProt P08195)
Sequence (P08195 206-630): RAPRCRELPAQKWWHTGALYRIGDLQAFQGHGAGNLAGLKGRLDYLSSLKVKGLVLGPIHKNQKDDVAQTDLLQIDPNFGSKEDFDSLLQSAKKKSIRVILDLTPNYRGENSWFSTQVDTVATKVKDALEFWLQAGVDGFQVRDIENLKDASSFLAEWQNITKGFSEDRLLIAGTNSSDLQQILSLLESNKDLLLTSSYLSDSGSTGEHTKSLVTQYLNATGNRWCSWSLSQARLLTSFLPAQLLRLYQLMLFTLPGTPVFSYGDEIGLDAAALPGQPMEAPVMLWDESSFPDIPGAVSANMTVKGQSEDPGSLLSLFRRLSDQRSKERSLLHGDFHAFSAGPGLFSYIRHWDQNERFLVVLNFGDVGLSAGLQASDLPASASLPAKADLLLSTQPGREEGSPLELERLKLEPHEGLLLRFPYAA
Test: ELISA, expression medium of VNAR-hFc on coated protein

Binding [relative units] (relative units)	Binder
0.048	B7
0.044	B8
0.041	B9
0.043	B10
0.076	B11
3.03	B12
0.043	B13
0.046	B14
2.97	B15
0.042	B16

Biological target: ectodomain of murine CD98hc (mouse) (UniProt P10852)
Test: as above

Binding [relative units] (relative units)	Binder
0.049	B7
0.044	B8
0.042	B9
0.041	B10
0.417	B1
0.084	B11
0.096	B12
0.043	B13
0.115	B2
0.045	B14
0.563	B3
0.041	B17
0.135	B15
0.041	B16
0.108	B4
0.186	B5
0.078	B6

Biological target: Human serum albumin (human) (UniProt P02768)
Sequence (P02768 25-609 limits assumed): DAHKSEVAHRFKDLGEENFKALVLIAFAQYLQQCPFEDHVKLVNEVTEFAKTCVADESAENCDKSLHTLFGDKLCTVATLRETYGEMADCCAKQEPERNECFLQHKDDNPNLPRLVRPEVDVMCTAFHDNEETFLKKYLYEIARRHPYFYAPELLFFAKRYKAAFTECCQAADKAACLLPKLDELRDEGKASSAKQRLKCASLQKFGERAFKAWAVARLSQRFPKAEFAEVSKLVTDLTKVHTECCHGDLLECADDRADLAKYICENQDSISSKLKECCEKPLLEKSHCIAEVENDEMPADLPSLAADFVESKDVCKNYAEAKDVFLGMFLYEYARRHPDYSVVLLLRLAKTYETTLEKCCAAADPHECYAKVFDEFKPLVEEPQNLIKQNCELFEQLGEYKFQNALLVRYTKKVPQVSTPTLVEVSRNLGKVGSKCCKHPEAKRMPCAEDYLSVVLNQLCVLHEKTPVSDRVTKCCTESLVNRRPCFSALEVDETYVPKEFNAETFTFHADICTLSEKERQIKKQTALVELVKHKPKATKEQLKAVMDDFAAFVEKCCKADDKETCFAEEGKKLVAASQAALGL
Test: ELISA, expression medium of VNAR-hFc on coated protein (negative control)

Binding [relative units] (relative units)	Binder
0.059	B7
0.054	B8
0.052	B9
0.051	B10
0.074	B1
0.081	B11
0.072	B12
0.054	B13
0.073	B2
0.055	B14
0.112	B3
0.053	B17
0.065	B15
0.052	B16
0.072	B4
0.06	B5
0.056	B6
